From PMC5821389, “Fluorescent single-stranded DNA-binding protein from Plasmodium falciparum as a biosensor for single-stranded DNA”

Columns and labels:
[1] = molecular target: T1, DCC-PfSSB (wild-type PfSSB labeled with IDCC) (Plasmodium falciparum, UniProt Q8I415 77-284); assay: stopped-flow kinetics (koff 0.014 s-1 / kon 199 uM-1s-1); low salt, 20 mM NaCl; koff by wtSSB displacement; High salt buffer (composition not in material) or low salt buffer (20 mM NaCl); pH and temperature not in material; details: protein: recombinant; tags: DCC (diethylaminocoumarin) at C93; chain copies: 4; single strand
[2] = molecular target: T1, DCC-PfSSB (wild-type PfSSB labeled with …); assay: fluorescence titration; high salt, 125 pM DCC-PfSSB; single titration; High salt buffer (composition not in material) or low salt buffer (20 mM NaCl); pH and temperature not in material; details: protein: recombinant; tags: DCC (diethylaminocoumarin) at C93; chain copies: 4; single strand
[3] = molecular target: T2, PfSSB wild type, unlabeled (Plasmodium falciparum, UniProt Q8I415 77-284); assay: competition; high salt, equimolar labeled and unlabeled PfSSB; High salt buffer (composition not in material) or low salt buffer (20 mM NaCl); pH and temperature not in material; details: protein: recombinant; chain copies: 4; single strand
[4] = molecular target: T1, DCC-PfSSB (wild-type PfSSB labeled with …); assay: stopped-flow kinetics (koff/kon); high salt (salt inferred); High salt buffer (composition not in material) or low salt buffer (20 mM NaCl); pH and temperature not in material; details: protein: recombinant; tags: DCC (diethylaminocoumarin) at C93; chain copies: 4; single strand
[5] = molecular target: PfSSB C93A G102C, IDCC labeled (Plasmodium falciparum, UniProt Q8I415 77-284, C93A;G102C); assay: fluorescence change; high salt; High salt buffer (composition not in material) or low salt buffer (20 mM NaCl); pH and temperature not in material; details: protein: recombinant; tags: DCC at C102; chain copies: 4; single strand
[6] = molecular target: PfSSB C93A G103C, 6-IATR labeled (Plasmodium falciparum, UniProt Q8I415 77-284, C93A;G103C); assay: as above; details: protein: recombinant; tags: tetramethylrhodamine (6-IATR) at C103; chain copies: 4; single strand
[7] = molecular target: PfSSB wild type, 5-IATR labeled (Plasmodium falciparum, UniProt Q8I415 77-284); assay: as above; details: protein: recombinant; tags: tetramethylrhodamine (5-IATR) at C93; chain copies: 4; single strand
[8] = molecular target: T1, DCC-PfSSB (wild-type PfSSB labeled with …); assay: as above; details: protein: recombinant; tags: DCC (diethylaminocoumarin) at C93; chain copies: 4; single strand
[9] = molecular target: PfSSB Y156R, IDCC labeled (Plasmodium falciparum, UniProt Q8I415 77-284, Y156R); assay: as above; details: protein: recombinant; tags: DCC at C93; chain copies: 4; single strand
[10] = molecular target: PfSSB C93A G103C, IDCC labeled (Plasmodium falciparum, UniProt Q8I415 77-284, C93A;G103C); assay: as above; details: protein: recombinant; tags: DCC at C103; chain copies: 4; single strand
[11] = molecular target: PfSSB C93A W166C, 5-IATR labeled (Plasmodium falciparum, UniProt Q8I415 77-284, C93A;W166C); assay: as above; details: protein: recombinant; tags: tetramethylrhodamine (5-IATR) at C166; chain copies: 4; single strand
[12] = molecular target: T2, PfSSB wild type, unlabeled; assay: competition; calculated from DCC-PfSSB Kd and 25-fold ratio; high salt; High salt buffer (composition not in material) or low salt buffer (20 mM NaCl); pH and temperature not in material; details: protein: recombinant; chain copies: 4; single strand
[13] = molecular target: T1, DCC-PfSSB (wild-type PfSSB labeled with …); assay: fluorescence titration; high salt, 250 nM protein; two dT35 per tetramer; kon 109 uM-1s-1; High salt buffer (composition not in material) or low salt buffer (20 mM NaCl); pH and temperature not in material; details: protein: recombinant; tags: DCC (diethylaminocoumarin) at C93; chain copies: 4; single strand; two copies per tetramer at saturation

Binder | Kd [1] [pM] | Kd [2] [pM] | binding signal [3] | Kd [4] [pM] | binding signal [5] | binding signal [6] | binding signal [7] | binding signal [8] | binding signal [9] | binding signal [10] | binding signal [11] | Kd [12] [pM] | binding result [13]
dT70 (ssDNA) DNA: TTTTTTTTTTTTTTTTTTTTTTTTTTTTTTTTTTTTTTTTTTTTTTTTTTTTTTTTTTTTTTTTTTTTTT | 70 | 1.2 ± 0.5 | > 25 fold tighter than DCC-PfSSB | < 4.6 | 1.8 ± 0.09 fluorescence ratio +/- dT70 | 3.5 ± 0.4 fluorescence ratio +/- dT70 | 9.1 ± 0.2 fluorescence ratio +/- dT70 | 20.1 ± 0.1 fluorescence ratio +/- dT70 | 12.3 ± 0.07 fluorescence ratio +/- dT70 | 3.5 ± 0.08 fluorescence ratio +/- dT70 | 12.8 ± 0.5 fluorescence ratio +/- dT70 | < 0.2 | –
TTTTTTTTTTTTTTTTTTTTTTTTTTTTTTTTTTT (ssDNA) [dT35] | – | – | – | – | – | – | – | – | – | – | – | – | binds
